Results: paper PMC12192291, “Ancestral [Fe-S] biogenesis system SMS has a unique mechanism of cluster assembly and sulfur utilization” (PLOS Biology, 2025)

B1: SmsB from Methanocaldococcus jannaschii (natural protein)
chain: MSIKEELMEIIEAIKYTSEKPEEIVHGKGPRIIVKESRIIDVQGDEGIILEGKEEDGKIKAKIIVKKGYKFKYPIHMCFGITEENISQIIDVEIILEEDSSISLMSHCSFPKGKGIKHIMNGIIKIGKNAKFSYNEFHYHGMDGDILVKPTVKVEIDEGGIYISNFTLTKGRIGTLDIEQEIIAKKDAIIDITTRTYAIKEDVVKVNEVVKLNGENAKCIIKSRGAAMDNSKISLKLKIEGNAPYSKGHIDCAEIVKGNAEVESIPIVVVRDDKARITHEAAIGSVDKKQLETLMAKGLDEDEATEIIVKGMIGDL
notes: SmsB, Methanocaldococcus jannaschii, subunit of the SMS system; Mainly a homodimer in solution; two copies in SmsC2B2; also called SmsB2; source: E. coli MG1655(DE3) (FBE682), purified (HisTrap, TEV protease, Ni-NTA, SEC); not shown: His6, N-terminal, cleaved
B2: SmsC from Methanocaldococcus jannaschii (enzyme)
chain: MVSIMLLKVEDLHVYRGNREILKGVNLTVEENEIHAIIGPNGAGKSTLAYTIMGISGYKPTKGRIIFKGVDIIDKNITERARMGMTLAWQEPARFEGIKVKNYLMLGMNEKYKKDKEIAEEKIREALKLVNLDPDKYLDRYVDETLSGGERKRIELASIICMEPDLAILDEPDSGIDIVSFDEIKRVFDYLKDKGCSLLVITHREELAEHADRVSLICAGEVIKSGDPKEVGEFYKKECGKCYKKVPDGK
notes: SmsC, Methanocaldococcus jannaschii, ABC ATPase subunit of the SMS system; Monomer in solution without nucleotide; two copies in SmsC2B2; In the cryo-EM sample one of the two copies carries a [4Fe-4S] cluster; also called apo-SmsC; source: E. coli MG1655(DE3) (FBE682), purified (HisTrap, TEV protease, Ni-NTA, SEC); not shown: His6, N-terminal, cleaved

Legend:
[1] = target: T1, SmsC (Methanocaldococcus jannaschii, UniProt Q60350); test: ligand-induced dimerization by size exclusion chromatography; blocks [Fe-S] reconstitution on SmsC2B2; assay type: binding; set-up: gene MJ0035; SmsC, His-tag removed
T1 sequence (Q60350 1-250): B2 chain

[2] = target: T1, SmsC; test: enzyme-coupled ATPase assay (PK/LDH) on purified protein; assay type: biochemical; set-up: gene MJ0035; SmsC alone and SmsC2B2 complex
[3] = target: the molecule itself; test: SEC; calibrated Hiload 600 Superdex 200, 50 mM Tris-HCl pH 7.8, 100 mM NaCl, 1 mM DTT; no nucleotide; for the complex SmsB2 and SmsC were mixed in molar amounts corresponding to SmsC2B2 and incubated overnight
[4] = target: B1; test: as above; details: both partners purified
[5] = target: the molecule itself; test: cryo-EM structure; chemically reconstituted [4Fe-4S]-bound SmsC2B2, prepared under anoxic conditions and quickly vitrified (9H78, EMD-51913)

Nc1ncnc2c1ncn2[C@@H]1O[C@H](CO[P@](=O)(O)O[P@](=O)(O)CP(=O)(O)O)[C@@H](O)[C@H]1O [AMP-PCP]
ligand-induced dimerization by size exclusion chromatography; blocks [Fe-S] reco [1]: Incubation of SmsC with excess of adenosine-5′-[(β,γ)-methyleno]triphosphate (AMP-PCP) led to SmsC dimer formation

Nc1ncnc2c1ncn2[C@@H]1O[C@H](COP(=O)(O)OP(=O)(O)OP(=O)(O)O)[C@@H](O)[C@H]1O [ATP]
enzyme-coupled ATPase assay (PK/LDH) on purified protein [2]: 0.98 min⁻¹ (kcat)

B1
stoichiometry N [3]: 2

B2
binding result [4]: binds | binding result [5]: binds
